Measurements as given in patent US20070082002A1 (IDEC PHARMACEUTICALS, published 2007).

B1: RF-2 human monoclonal antibody to RSV F-protein (antibody, human IgG1, V domains shown)
VH: QVQLQESGPALVKPTQTLTLTCTFSGFSLSTRGMSVNWIRQPPGKALEWLARIDWDDDTFYSASLKTRLSISKDTSKNQVVLRMTNVDPVDTATYFCARASLYDSDSFYLFYHAYWGQGTVVTVSS
VL: DIQMTQSPSSLSASVGDRVTITCRASQSIASYVNWYQQKPGKAPKVLIFASANLVSGVPSRFSGSGSGTVFTLTISNLQPEDFATYFCQQSYTNFSFGQGTKLEIK
notes: Tested as natural human IgG1 kappa, protein A purified from supernatant of the tumor cell line from hu-SPL-SCID mouse #15; The early preparation held at least two antibody populations
B2: RF-1 human monoclonal antibody to RSV F-protein (antibody, human IgG1, V domains shown)
VH: QVQLQESGPVVVKPTETLTLTCTVSGFSLSNPRMGVTWIRQPPGKALEWLGNIFSSDEKSFSPSLKSRLTTSQDTSRSQVVLSLTNVDPVDTATYYCARVGLYDINAYYLYYLDYWGQGTLVTVSS
VL: DIQMTQSPSSLSASVGDRVTITCRAGQRIASYLNWYQHKPGKAPKLLIYAGSNLHRGVPSRFSGGGSGTDFTLTINSLQPEDFATYYCQQAYSTPWTFGPGTKVEIK
notes: Tested as natural human IgG1 kappa, protein A purified from supernatant of the EBV-positive tumor cell line from hu-SPL-SCID mouse #6

Assays:
[1] = biological target: T1, RSV fusion (F) protein, affinity purified from HEp-2 cells infected with the Long strain of RSV (respiratory syncytial virus, Long …, UniProt P12568 26-109; P12568 137-574); assay: ELISA, plate coated with purified F-protein, GAH IgG-HRP detection
T1 construct: mature; also called RSV F-protein; soluble F-protein
T1 sequence (P12568 26-109, chain 1 of 2): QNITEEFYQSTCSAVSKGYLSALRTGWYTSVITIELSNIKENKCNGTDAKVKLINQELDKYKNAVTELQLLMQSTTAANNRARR
T1 sequence (P12568 137-574, chain 2 of 2): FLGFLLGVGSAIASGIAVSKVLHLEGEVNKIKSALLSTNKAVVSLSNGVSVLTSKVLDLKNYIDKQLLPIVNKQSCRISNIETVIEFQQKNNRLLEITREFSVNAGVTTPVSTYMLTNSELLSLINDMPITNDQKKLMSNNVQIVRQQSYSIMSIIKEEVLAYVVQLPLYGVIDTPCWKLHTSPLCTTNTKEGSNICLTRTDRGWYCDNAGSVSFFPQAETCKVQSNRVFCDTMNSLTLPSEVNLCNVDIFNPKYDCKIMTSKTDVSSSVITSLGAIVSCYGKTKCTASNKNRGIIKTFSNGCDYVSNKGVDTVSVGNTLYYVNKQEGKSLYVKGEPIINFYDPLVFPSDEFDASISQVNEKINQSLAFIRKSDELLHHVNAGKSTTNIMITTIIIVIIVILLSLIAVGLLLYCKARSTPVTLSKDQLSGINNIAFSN

[2] = biological target: T1, RSV fusion (F) protein, affinity …; assay: titration micro calorimetry, RF-2 and F-protein in solution
[3] = biological target: F-protein of RSV RS Long (Type A prototype) in infected VERO cells (respiratory syncytial virus, Long …, UniProt P12568 26-574); assay: cell-based or functional assay
Chain of F-protein of RSV RS Long (Type A prototype) in infected VERO cells (P12568 26-574): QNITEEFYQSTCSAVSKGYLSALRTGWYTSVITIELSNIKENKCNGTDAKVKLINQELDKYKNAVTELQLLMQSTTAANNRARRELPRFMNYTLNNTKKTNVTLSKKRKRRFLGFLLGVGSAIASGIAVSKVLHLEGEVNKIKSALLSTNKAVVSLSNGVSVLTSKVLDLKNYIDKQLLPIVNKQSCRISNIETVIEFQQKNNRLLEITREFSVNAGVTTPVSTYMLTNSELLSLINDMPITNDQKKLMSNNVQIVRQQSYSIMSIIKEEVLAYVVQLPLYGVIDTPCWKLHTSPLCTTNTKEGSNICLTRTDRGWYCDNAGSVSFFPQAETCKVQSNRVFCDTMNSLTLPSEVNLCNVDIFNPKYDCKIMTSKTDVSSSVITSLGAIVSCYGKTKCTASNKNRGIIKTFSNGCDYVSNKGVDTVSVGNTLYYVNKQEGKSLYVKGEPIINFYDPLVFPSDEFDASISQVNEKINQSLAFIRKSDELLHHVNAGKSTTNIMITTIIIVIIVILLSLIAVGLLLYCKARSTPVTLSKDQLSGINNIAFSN

[4] = biological target: F-protein of RSV MR 144 (Type A) (respiratory syncytial virus, MR 144 …); assay: cell-based or functional assay
[5] = biological target: F-protein of RSV 18537 (Type B) (respiratory syncytial virus, strain …, UniProt P13843 26-574); assay: cell-based or functional assay
Chain of F-protein of RSV 18537 (Type B) (P13843 26-574): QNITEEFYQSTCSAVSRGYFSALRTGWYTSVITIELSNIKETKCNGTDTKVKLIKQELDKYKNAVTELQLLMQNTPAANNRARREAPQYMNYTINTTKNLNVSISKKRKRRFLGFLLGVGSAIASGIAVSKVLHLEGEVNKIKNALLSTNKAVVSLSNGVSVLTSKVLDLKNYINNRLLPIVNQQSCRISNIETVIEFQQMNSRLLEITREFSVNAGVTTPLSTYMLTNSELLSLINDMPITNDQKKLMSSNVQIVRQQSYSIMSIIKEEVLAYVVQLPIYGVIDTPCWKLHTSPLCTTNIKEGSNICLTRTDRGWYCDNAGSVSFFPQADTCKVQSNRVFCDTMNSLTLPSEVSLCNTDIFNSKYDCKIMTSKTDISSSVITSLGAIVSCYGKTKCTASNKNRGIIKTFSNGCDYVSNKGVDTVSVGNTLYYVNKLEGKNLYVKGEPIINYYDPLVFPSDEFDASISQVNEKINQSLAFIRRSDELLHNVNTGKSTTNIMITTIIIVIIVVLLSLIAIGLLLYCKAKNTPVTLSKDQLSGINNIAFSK

[6] = biological target: F-protein of RSV RS 6556 (Type B clinical isolate) in infected VERO cells (respiratory syncytial virus, RS 6556 …); assay: cell-based or functional assay
[7] = biological target: T1, RSV fusion (F) protein, affinity …; assay: plasmon resonance on an IASYS machine, antibody bound covalently, F-protein in solution

Binder | EC50 [1] [mg/L] | Kd [2] [nM] | Fusion Inhibition activity ED50 titer [3] [mg/L] | Infection Neutralization Activity ED50 titer [4] [mg/L] | Infection Neutralization Activity ED50 titer [5] [mg/L] | Fusion Inhibition activity ED50 titer [6] [mg/L] | Kd [7] [nM]
B1 | 0.001 | 2 | 3.3 | 0.008 | 0.012 | 0.4 | –
B2 | 0.0006 | – | 0.66 | 0.03 | 0.03 | 0.04 | ~0.1
